Data reported in US20070293656A1, “COLLAGEN BINDING PEPTIDES” (Epix Pharmaceuticals, Inc., priority 2005, published 2007).
Like-named read-outs stand apart in the source and are kept apart here. Bridge positions count the residues as written; N and C are the ends. Square brackets hold non-standard residues; d marks the D form. Primed or numbered codes have the meaning given here. Ends that are not written are not given here. * marks the point of attachment. Orn = NCCC[C@H](N)C(=O)O; Gd^T″ = GdDTPA-thiourea; Cbz = O=C(OCc1ccccc1)*

What was measured:
Experiment in all cases: dried collagen assay
[1] = target: T1, human collagen type I (acid soluble, extracted from placenta, Sigma C7774) (human, UniProt P02452 162-1218; P08123 80-1119)
T1 construct: gelled and dried as a fibril film in the assay; also called dried human collagen; h-Collagen
T1 sequence (P02452 162-1218 limits assumed, chain 1 of 2): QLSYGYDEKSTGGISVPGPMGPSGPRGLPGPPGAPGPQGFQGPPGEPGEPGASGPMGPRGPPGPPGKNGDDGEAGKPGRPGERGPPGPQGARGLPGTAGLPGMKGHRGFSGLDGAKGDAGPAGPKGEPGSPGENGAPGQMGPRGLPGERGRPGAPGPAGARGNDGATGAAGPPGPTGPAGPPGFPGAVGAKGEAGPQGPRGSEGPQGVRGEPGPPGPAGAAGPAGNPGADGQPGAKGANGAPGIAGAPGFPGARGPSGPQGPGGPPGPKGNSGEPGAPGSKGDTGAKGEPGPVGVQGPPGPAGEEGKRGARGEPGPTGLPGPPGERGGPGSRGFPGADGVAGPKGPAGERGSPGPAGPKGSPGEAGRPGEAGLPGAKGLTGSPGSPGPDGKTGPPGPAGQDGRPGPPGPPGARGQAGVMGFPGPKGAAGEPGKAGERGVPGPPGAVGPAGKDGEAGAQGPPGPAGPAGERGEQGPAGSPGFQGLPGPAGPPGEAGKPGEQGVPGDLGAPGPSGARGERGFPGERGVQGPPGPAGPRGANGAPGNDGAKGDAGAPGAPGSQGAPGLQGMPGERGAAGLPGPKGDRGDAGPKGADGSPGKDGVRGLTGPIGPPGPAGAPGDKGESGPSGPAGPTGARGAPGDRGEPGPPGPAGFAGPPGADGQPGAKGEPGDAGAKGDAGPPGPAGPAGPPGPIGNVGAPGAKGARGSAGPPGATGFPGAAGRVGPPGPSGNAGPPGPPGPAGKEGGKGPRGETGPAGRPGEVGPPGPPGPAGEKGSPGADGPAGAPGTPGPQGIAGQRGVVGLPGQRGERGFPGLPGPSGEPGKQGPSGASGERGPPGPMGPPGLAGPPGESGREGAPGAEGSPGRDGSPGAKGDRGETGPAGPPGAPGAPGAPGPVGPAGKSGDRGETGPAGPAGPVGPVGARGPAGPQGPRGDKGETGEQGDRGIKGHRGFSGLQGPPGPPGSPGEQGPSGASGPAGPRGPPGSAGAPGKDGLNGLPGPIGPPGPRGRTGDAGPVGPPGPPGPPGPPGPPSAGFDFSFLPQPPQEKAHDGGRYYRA
T1 sequence (P08123 80-1119 limits assumed, chain 2 of 2): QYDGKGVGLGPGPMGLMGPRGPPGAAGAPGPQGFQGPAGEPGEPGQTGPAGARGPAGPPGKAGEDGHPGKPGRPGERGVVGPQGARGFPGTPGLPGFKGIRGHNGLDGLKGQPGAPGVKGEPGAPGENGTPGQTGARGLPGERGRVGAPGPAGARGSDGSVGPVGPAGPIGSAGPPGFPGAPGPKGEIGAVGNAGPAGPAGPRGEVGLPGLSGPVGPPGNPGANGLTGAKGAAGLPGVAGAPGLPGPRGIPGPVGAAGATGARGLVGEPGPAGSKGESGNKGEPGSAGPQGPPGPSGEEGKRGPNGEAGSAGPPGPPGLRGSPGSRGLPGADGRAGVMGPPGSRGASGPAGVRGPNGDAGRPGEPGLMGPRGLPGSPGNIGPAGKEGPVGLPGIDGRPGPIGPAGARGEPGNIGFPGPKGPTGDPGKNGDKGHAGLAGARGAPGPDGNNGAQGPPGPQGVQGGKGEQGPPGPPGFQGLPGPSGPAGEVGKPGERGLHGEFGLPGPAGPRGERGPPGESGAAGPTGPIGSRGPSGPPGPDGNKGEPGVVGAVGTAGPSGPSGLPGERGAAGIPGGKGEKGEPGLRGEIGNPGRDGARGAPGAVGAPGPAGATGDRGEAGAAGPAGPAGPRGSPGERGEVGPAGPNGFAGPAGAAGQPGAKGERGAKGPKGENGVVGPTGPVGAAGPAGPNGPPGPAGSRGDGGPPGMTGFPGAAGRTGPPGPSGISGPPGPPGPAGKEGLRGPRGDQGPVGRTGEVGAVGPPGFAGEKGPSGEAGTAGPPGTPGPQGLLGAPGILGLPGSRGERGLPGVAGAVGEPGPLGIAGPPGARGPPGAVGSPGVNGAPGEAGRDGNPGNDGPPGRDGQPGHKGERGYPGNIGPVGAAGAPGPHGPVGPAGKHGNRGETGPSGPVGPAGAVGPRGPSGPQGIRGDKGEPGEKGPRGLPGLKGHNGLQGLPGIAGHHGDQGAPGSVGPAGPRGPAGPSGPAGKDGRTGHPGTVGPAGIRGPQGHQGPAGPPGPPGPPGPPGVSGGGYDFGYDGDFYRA

[2] = target: T2, rat collagen (acid soluble, type I, rat tail, Upstate 08-115) (rat, UniProt P02454 152-1207; P02466 86-1125)
T2 construct: also called dried rat collagen; insoluble rat collagen
T2 sequence (P02454 152-1207 limits assumed, chain 1 of 2): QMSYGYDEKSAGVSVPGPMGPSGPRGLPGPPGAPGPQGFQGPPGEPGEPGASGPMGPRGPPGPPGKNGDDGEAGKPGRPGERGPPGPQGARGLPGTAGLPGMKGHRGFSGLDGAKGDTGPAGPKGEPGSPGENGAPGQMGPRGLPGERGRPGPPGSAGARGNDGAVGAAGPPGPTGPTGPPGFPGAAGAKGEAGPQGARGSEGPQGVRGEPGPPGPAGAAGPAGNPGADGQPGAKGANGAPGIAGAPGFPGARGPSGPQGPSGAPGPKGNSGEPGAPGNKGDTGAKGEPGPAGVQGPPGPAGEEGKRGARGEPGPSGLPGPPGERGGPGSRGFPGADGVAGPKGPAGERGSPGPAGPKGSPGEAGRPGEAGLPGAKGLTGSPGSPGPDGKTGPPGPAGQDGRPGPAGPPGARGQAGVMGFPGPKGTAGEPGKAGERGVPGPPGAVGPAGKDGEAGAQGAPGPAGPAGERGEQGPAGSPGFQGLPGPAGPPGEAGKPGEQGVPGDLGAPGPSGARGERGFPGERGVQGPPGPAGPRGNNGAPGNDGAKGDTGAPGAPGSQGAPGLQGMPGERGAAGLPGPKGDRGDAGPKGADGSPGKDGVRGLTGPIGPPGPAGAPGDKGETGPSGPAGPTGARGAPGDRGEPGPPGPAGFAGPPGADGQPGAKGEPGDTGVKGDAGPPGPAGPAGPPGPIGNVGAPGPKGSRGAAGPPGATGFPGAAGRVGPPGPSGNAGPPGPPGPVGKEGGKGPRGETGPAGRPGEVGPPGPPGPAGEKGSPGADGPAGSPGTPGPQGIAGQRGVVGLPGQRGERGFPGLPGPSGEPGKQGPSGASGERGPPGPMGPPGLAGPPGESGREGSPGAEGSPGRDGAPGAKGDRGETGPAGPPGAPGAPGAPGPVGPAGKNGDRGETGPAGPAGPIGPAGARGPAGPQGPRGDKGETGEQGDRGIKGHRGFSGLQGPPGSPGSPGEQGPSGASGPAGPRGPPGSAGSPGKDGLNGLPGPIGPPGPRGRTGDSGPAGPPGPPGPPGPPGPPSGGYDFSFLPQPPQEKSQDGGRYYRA
T2 sequence (P02466 86-1125 limits assumed, chain 2 of 2): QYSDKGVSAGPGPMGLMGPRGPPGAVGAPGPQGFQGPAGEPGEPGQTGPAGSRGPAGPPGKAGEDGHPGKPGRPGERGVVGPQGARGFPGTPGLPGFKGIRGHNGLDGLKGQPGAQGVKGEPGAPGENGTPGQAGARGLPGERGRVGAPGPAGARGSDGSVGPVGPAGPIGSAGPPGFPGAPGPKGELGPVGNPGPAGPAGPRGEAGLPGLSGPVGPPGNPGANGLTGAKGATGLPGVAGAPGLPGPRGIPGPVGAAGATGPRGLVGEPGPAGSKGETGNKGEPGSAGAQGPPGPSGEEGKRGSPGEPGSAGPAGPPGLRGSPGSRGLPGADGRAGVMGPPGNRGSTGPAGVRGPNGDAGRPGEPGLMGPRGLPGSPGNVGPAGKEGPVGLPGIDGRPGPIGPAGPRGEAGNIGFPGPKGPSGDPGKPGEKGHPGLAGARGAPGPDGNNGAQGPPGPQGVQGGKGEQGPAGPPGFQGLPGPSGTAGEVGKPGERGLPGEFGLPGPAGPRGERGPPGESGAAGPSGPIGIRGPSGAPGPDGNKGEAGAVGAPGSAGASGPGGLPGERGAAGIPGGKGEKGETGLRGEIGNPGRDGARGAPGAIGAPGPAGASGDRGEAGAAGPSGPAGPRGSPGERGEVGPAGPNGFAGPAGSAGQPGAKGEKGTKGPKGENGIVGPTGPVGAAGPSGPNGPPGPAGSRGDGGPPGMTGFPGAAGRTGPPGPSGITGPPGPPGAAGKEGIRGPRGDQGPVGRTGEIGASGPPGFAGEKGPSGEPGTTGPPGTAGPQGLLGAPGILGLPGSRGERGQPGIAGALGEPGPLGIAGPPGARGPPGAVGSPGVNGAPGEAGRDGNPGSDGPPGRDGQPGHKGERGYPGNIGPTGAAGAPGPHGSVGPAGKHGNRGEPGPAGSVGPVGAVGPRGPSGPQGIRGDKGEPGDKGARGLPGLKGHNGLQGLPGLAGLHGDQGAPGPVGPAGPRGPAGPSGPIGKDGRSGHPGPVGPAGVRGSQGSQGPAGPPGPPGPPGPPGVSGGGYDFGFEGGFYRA

[3] = target: T1, human collagen type I (acid soluble, …); remark: listed apart in the source
[4] = target: T2, rat collagen (acid soluble, type I, rat …); remark: listed apart in the source
[5] = target: human collagen type I (acid soluble, extracted from placenta, Sigma C7774) (human) (UniProt P02452)
Chain of human collagen type I (acid soluble, extracted from placenta, Sigma C7774) (human) (P02452 162-1218 limits assumed, chain 1 of 2): as the sequence (P02452 162-1218 limits assumed, chain 1 of 2) above
Chain of human collagen type I (acid soluble, extracted from placenta, Sigma C7774) (human) (P08123 80-1119 limits assumed, chain 2 of 2, further chain): as the sequence (P08123 80-1119 limits assumed, chain 2 of 2) above

[6] = target: T2, rat collagen (acid soluble, type I, rat …); remark: listed apart in the source
[7] = target: rat collagen (acid soluble, type I, rat tail, Upstate 08-115) (rat) (UniProt P02454)
Chain of rat collagen (acid soluble, type I, rat tail, Upstate 08-115) (rat) (P02454 152-1207 limits assumed, chain 1 of 2): as the sequence (P02454 152-1207 limits assumed, chain 1 of 2) above
Chain of rat collagen (acid soluble, type I, rat tail, Upstate 08-115) (rat) (P02466 86-1125 limits assumed, chain 2 of 2, further chain): as the sequence (P02466 86-1125 limits assumed, chain 2 of 2) above

Q: Which “% bound” value [1] does the source give for YHACY[dQ]AGCWIW (disulfide 4-9 (inferred)) [SEQ ID NO: 157] here?
A: 37%

Q: And the “% bound” value [2]?
A: 35%

Q: How did the “% bound” value [1] turn out when Y[dH]ACYQAGCWIW (disulfide 4-9 (inferred)) [SEQ ID NO: 153] was run?
A: 0%

Q: And the “% bound” value [2]?
A: 0%

Q: Which “% bound” value [3] does the source give for YAACYQAGCWIW (disulfide 4-9 (inferred)) [SEQ ID NO: 132] here?
A: 53%

Q: What about the “% bound” value [4] of the same binder?
A: 37%

Q: With YHACYQAGCWIA (disulfide 4-9 (inferred)) [SEQ ID NO: 138] as the binder, how does the “% bound” value [3] read?
A: 2%

Q: And the “% bound” value [4]?
A: 1%

B1: Comp ID 941 (peptide)
peptide: Cbz-GQWHCT[Orn](Gd^T″)RFPHHYCLYG
modifications: disulfide 5-14; not fully specified (C-terminus); printed as cbz-GQWHCT-Orn(Gd^T)-RFPHHYCLYG
Q: B1 was tested. Which % bound [5] did it give?
A: 8%

Q: And the “% bound” value [6]?
A: 5%

Q: YHACYQAGC[dW]IW (disulfide 4-9 (inferred)) [SEQ ID NO: 160] was tested. Which “% bound” value [1] did it give?
A: 20%

Q: And the “% bound” value [2]?
A: 12%

Q: Which “% bound” value [1] does the source give for YH[dA]CYQAGCWIW (disulfide 4-9 (inferred)) [SEQ ID NO: 154] here?
A: 24%

Q: And the “% bound” value [2]?
A: 21%

Q: Which results are given for YHAC[dY]QAGCWIW (disulfide 4-9 (inferred)) [SEQ ID NO: 156]?
A: % bound [1]: 38%; % bound [2]: 48%

Q: Which “% bound” value [1] does the source give for YHACYQ[dA]GCWIW (disulfide 4-9 (inferred)) [SEQ ID NO: 158] here?
A: 56%

Q: What about the “% bound” value [2] of the same binder?
A: 66%

Q: AHACYQAGCWIW (disulfide 4-9 (inferred)) [SEQ ID NO: 131] was tested. Which “% bound” value [3] did it give?
A: 7%

Q: And the “% bound” value [4]?
A: 12%

Q: With YHACYAAGCWIW (disulfide 4-9 (inferred)) [SEQ ID NO: 134] as the binder, how does the “% bound” value [3] read?
A: 14%

Q: What about the “% bound” value [4] of the same binder?
A: 1%

Q: For YHACYQAGCAIW (disulfide 4-9 (inferred)) [SEQ ID NO: 136], which “% bound” value [3] is on record?
A: 2%

Q: And the “% bound” value [4]?
A: 2%

Q: How did the % bound [7] turn out when YHACYQAGCWAW (disulfide 4-9 (inferred)) [SEQ ID NO: 137] was run?
A: 7%

Q: What about the “% bound” value [3] of the same binder?
A: 4%

Q: What does the source list for YHACAQAGCWIW (disulfide 4-9 (inferred)) [SEQ ID NO: 133]?
A: % bound [3]: 4%; % bound [4]: 5%

Q: What does the source list for YHACYQAACWIW (disulfide 4-9 (inferred)) [SEQ ID NO: 135]?
A: % bound [3]: 72%; % bound [4]: 88%

Q: YHACYQAGCW[dI]W (disulfide 4-9 (inferred)) [SEQ ID NO: 161] was tested. Which “% bound” value [1] did it give?
A: 8%

Q: And the “% bound” value [2]?
A: 10%
